Measurements published in PMC11467045, “The hGID^GID4 E3 ubiquitin ligase complex targets ARHGAP11A to regulate cell migration” (Life Science Alliance, 2024).
Where no end group is shown, it is not given here.

Assays:
GID4^Δ1–115 [1] = target: T1, GID4^Δ1–115 (human, UniProt Q8IVV7 116-300); assay: fluorescence polarisation; saturation binding: 20 nM TAMRA-labeled peptide with indicated GID4^Δ1–115 concentrations, 10 min, FP buffer (20 mM MOPS pH 7.6, 100 mM NaCl, 25 mM D-trehalose, 1% glycerol, 0.01% Triton X-100, 0.1 g/l BSA); one site-specific binding model; details: both partners purified
T1 construct: also called recombinant GID4 lacking its N-terminal domain; source: E. coli Rosetta 2(DE3)pLysS, purified (Strep-Tactin, Ulp1 cleavage, size-exclusion chromatography); not shown: 2xStrepII, N-terminal, cleaved; Smt3, N-terminal, cleaved
T1 sequence (looked up): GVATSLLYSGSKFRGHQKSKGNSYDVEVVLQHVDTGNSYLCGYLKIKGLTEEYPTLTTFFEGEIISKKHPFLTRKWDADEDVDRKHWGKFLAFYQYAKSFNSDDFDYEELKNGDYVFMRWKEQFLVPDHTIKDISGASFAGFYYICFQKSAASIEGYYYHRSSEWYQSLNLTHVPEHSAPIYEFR

GID4^Δ1–115 [2] = target: T1, GID4^Δ1–115; assay: fluorescence polarisation; competition: 20 μM GID4^Δ1–115 and 20 nM PGLWKS-TAMRA, 10 min with twofold dilutions of unlabeled peptides in FP buffer; log(inhibitor) versus response, variable slope; details: both partners purified

B1: PGLWKS-TAMRA (peptide)
peptide: PGLWKS-{TAMRA}
notes: control degron peptide (Dong et al, 2018); also called TAMRA-labeled control peptide PGLWKS
GID4^Δ1–115 [1]
  Kd: 2.4 µM

B2: PGKLRSDAG (peptide)
peptide: PGKLRSDAG
notes: amino terminus of DDX21 (Owens et al, 2024), without the initiator methionine; also called N-terminal peptide of DDX21
GID4^Δ1–115 [2]
  IC50: 83.4 µM

## PGLWKS (control degron peptide, unlabeled) [unlabeled PGLWKS]
GID4^Δ1–115 [2]
  IC50: 30.3 µM
